The record followed here is article PMC7346098 (Biochemistry, 2020).

This experiment addresses T1, KaiC_(S431E,T432E) (Synechococcus elongatus (PCC 7942), UniProt Q79PF4 1-519, S431E | T432E).
T1 sequence (looked up): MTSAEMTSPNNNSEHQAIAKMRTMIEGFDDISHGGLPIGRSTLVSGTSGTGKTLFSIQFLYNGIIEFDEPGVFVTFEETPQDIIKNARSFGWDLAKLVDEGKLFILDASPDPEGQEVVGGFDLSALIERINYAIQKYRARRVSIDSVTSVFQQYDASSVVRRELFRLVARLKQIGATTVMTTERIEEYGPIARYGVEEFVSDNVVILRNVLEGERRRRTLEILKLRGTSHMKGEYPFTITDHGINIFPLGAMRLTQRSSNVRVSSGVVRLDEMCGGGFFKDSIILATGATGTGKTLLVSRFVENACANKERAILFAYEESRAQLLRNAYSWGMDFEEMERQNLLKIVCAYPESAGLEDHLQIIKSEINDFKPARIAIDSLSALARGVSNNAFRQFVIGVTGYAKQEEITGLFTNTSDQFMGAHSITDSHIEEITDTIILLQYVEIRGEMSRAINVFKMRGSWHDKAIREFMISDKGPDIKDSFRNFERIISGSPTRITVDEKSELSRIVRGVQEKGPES
The experiment in a line: fluorescence polarisation. A general note: Polarisation of emitted light reports the rotation of a fluorescent probe.

B1: WT-KaiB (natural protein, Synechococcus elongatus (PCC 7942), UniProt Q79PF5 1-102, looked up)
chain: MSPRKTYILKLYVAGNTPNSVRALKTLKNILEVEFQGVYALKVIDVLKNPQLAEEDKILATPTLAKVLPLPVRRIIGDLSDREKVLIGLDLLYGELQDSDDF
As for B1, the binding result is recorded as “binds”.
